Experimental data reported in patent US11766414B2, “Compositions, delivery systems, and methods useful in tumor therapy” (Indi Molecular, Inc., priority 2020, dated 2023).
Starred links: 1 amine or outer side, 2 acyl side, 3 side chain; linkers in the order of their positions; H or OH if unused. Positions of bridges follow the written chain, without caps; N, C: chain ends. Non-standard residues stand in square brackets, D forms with d. Residues, ends and D or L forms follow the SMILES beside them. Triazole bridges read from a SMILES are 1,4-linked. *: point of attachment. DOTA = O=C(O)CN1CCN(CC(=O)O)CCN(CC(=O)*)CCN(CC(=O)O)CC1; Pteroyl = Nc1nc2ncc(CNc3ccc(C(=O)*)cc3)nc2c(=O)[nH]1; Biotin = O=C1N[C@H]2[C@H](CS[C@H]2CCCCC(=O)*)N1; Butanoyl(4-(4-MePh)) = Cc1ccc(CCCC(=O)*)cc1; Lys(N3) = [N-]=[N+]=NCCCC[C@H](N)C(=O)O; γGlu = O=C(O)[C@H](CCC(=O)[*:2])N[*:1]; AEEEA = NCCOCCOCCOCC(=O)O; Pra = C#CC[C@H](N)C(=O)O

Key:
[1] = tested on: OVCAR3 xenograft; test: 177Lu FOLR1 radioligand therapy of OVCAR3 xenografts; assay type: in vivo, mouse
Method: (§1) Water and food were provided ad libitum. […] Tumor growth was monitored by caliper measurements.
OVCAR3 tumor bearing mice were used to study FOLR1-directed radioligand therapy (RLT) for treatment of ovarian cancer. Animals were administered a single dose of heterobiligand (vehicle control) or 111, 37, 18.5, 9.25, or 3.7 MBq [^177Lu]DOTA-labeled heterobiligand. Mice received the dose intravenously (i.v.) via the tail vein. To monitor the effect of the RLT, tumor size measurements were taken twice weekly and body weights were measured.
Single dose treatments at 18.5 MBq/nmol specific activity. OVCAR3 mouse model was used. 10^7 cell tumors were implanted in the mice one month before administration of ^177Lu-#6305. Five mice each were administered Cold #6305, 9.25 MBq Lu177-#6305, and 14.8 MBq Lu177-#6305, and two mice were administered 29.6 MBq Lu177-#6305. Tumor growth and body weight were then monitored.
Female NSG mice were implanted subcutaneously with OVCAR3 cells. Once tumors reached volumes of 200 mm^3, the animals were treated with 177-Lu 7327. Three treatment arms of 9.25 MBq, 14.8 MBq, and 29.6 MBq were studied.

[2] = tested on: OVCAR3 xenograft; test: as above; assay type: in vivo, mouse; remark: listed apart in the source
[3] = Gamma counting of tissue radioactivity; assay type: in vivo, mouse; details: for kidney radioactivity / liver radioactivity / tumor radioactivity: Day 28 post-injection
Source text: 7 days after Lu177-#6305 injection, the 29.6 MBq group lost 20% body weight. These mice were sacrificed. Tissues and plasma were collected for evaluation of radioactivity by gamma counting. The toxicity may have resulted from its accumulation in the kidneys and liver (FIG. 28). At study endpoint (Day 28 post-injection), plasma, tumors, kidneys, lungs, hearts, livers, and muscles from 9.25 MBq and 14.8 MBq treatment groups were collected for evaluation of radioactivity by gamma counting (FIG. 29).

[4] = Maximum tolerated dose (MTD) tolerability study
Method: In order to establish a maximum tolerated dose (MTD), a tolerability study was undertaken testing increasing amounts of the 177-Lu heterobiligand 7327 (folate-hshta-Gly-Phe-Lys(DOTA)). Animals were monitored for signs of toxicity and weighed twice weekly. […] The second and third doses were administered 21 days following the previous dose.
Efforts were undertaken to evaluate 177-Lu 6305 (folate-hshta-Lys(MPBA)-Gly-Phe-Lys(DOTA)), a compound with a brush border cleavable linker in addition to an albumin binder. […] Two separate MTD experiments were undertaken. […] A second experiment interrogated lower doses.
In order to establish a MTD, dose range finding studies were undertaken testing increasing amounts of Indi ^177Lu-7327 in healthy, non-tumor bearing female NSG mice using IV administration (FIGS. 34 and 35). Mouse body weight and behavior were monitored. […] The second and third doses were administered 21 days following the previous dose.

[5] = tested on: OVCAR3 FOLR1+ cells (PC-3 FOLR1− cells as negative line); test: Flow cytometry binding to FOLR1 (+) and FOLR1 (−) cell lines; assay type: cell-based, human; details: for binding selectivity for FOLR1 (+) cells over FOLR1 (−) cells: OVCAR3 vs PC-3, flow cytometry
Method: Both the kyeet (SEQ ID NO:9) and hshta (SEQ ID NO:6)-derived biligands were tested by flow cytometry for binding to FOLR1 (+) and FOLR1 (−) cell lines (FIGS. 6 and 7). The human ovarian adenocarcinoma-derived cell line OVCAR3 has robust FOLR1 expression and was selected as the FOLR1 (+) cell line. The human prostate adenocarcinoma-derived cell line PC-3 was selected as a FOLR1 (−) cell line.

[6] = target: T1, FOLR1 (Homo sapiens, UniProt P15328); test: ELISA assay of FOLR1 binding; details: for EC50: read-out: EC50 (ELISA, FOLR1)
T1 sequence (P15328 25-234): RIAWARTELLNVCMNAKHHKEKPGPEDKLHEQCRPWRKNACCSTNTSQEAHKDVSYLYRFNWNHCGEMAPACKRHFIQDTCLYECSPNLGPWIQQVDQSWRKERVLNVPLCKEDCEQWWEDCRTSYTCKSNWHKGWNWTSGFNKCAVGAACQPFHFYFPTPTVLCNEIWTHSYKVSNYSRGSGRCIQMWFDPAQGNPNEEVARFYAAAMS
Source text: FIG. 5 is a diagram of ELISA assay of FOLR1 binding of heterobiligands.

[7] = in vivo; details: female, NSG, mouse, iv, total radioactivity
Method: as §1
CT scans were acquired for anatomical reference. Imaging was performed on a GENISYS^8 microPET/CT small animal scanner.
NSG mice were engrafted with OVCAR3 cells subcutaneously. […] Absorption of the radiotracer by highly perfused organs including the lungs indicate systemic circulation of the compound. Compound clearance is driven at the very early timepoints by a combination of hepatic and renal excretion. Over time, clearance is exclusively renal with retention of the compound in the tumor, and kidney.

[8] = target: T1, FOLR1; test: Folic acid competition ELISA; assay type: binding
Method: A competition experiment was conducted to further understand the binding kinetics of the lead heterobiligand (folate-hshta (SEQ ID NO:6) Nterm heterobiligand).

[9] = 29.6 MBq group, Day 7 post-injection

Cc1ccc(CCCC(=O)NCCCC[C@H](NC(=O)[C@@H]2CCCCn3cc(nn3)C[C@H](NC(=O)CC[C@H](NC(=O)c3ccc(NCc4cnc5nc(N)[nH]c(=O)c5n4)cc3)C(=O)O)C(=O)N[C@H](Cc3c[nH]cn3)C(=O)N[C@H](CO)C(=O)N[C@H](Cc3c[nH]cn3)C(=O)N[C@H]([C@H](C)O)C(=O)N[C@H](C)C(=O)N2)C(=O)NCC(=O)N[C@@H](Cc2ccccc2)C(=O)N[C@@H](CCCCNC(=O)CN2CCN(CC(=O)O)CCN(CC(=O)O)CCN(CC(=O)O)CC2)C(=O)O)cc1 (177Lu complex, metal not drawn) [Lu177-#6305] ({Pteroyl-γGlu}-[Pra][dH][dS][dH][dT][dA][Lys(N3)]K(Butanoyl(4-(4-MePh)))GFK(DOTA)-OH; triazole 1-7)
body weight change ([1]; 9.25 MBq and 14.8 MBq, single dose): No significant body weight change | tumor response ([1]; 9.25 MBq, single dose at 18.5 MBq/nmol, tumor size (avg.) 148 mm^3): nonresponse | tumor response ([1]; 14.8 MBq, single dose at 18.5 MBq/nmol, tumor size (avg.) 148 mm^3): partial response | body weight lost ([1]; 29.6 MBq group, 7 days after injection): 20% | OVCAR3 tumor growth ([2]; 14.8 MBq, single dose): significantly slowed down OVCAR3 tumor growth | body weight change ([2]; 29.6 MBq, single dose): substantial body weight decrease | kidney radioactivity ([3]; 9.25 MBq group): 414 CPM/g | liver radioactivity ([3]; 9.25 MBq group): 685 CPM/g | tumor radioactivity ([3]; 9.25 MBq group): 33 CPM/g | liver/kidney ratio ([3]; 14.8 MBq group on Day 28): 1.94 | kidney radioactivity ([3]; 14.8 MBq group): 653 CPM/g | liver radioactivity ([3]; 14.8 MBq group): 1,264 CPM/g | tumor radioactivity ([3]; 14.8 MBq group): 60 CPM/g | liver/kidney ratio ([3]; 29.6 MBq group on Day 7): 0.27 | radioactivity in the kidney [3, 9]: 394,834 CPM/g | radioactivity in the liver [3, 9]: 107,374 CPM/g | radioactivity in the tumor [3, 9]: 42,674 CPM/g | tolerability of second dose ([4]; 14.8-22.2 MBq, second dose administered 21 days): not tolerated | tolerability of second dose ([4]; 29.6-185 MBq, second dose 7 days after the first): not tolerated | body weight ([4]; 29.6 MBq, 37 MBq, 111 MBq, and 185 MBq, first dose): began to experience weight loss after the first dose | body weight ([4]; single dose of 14.8 MBq, 18.5 MBq, and 22.2 MBq): only minimal loss in body weight that quickly stabilized

C[C@H](O)[C@H]1NC(=O)[C@@H](Cc2ccc(O)cc2)NC(=O)[C@@H](CCCNC(=N)N)NC(=O)[C@@H](CCC(=O)O)NC(=O)[C@@H](CC(=O)O)NC(=O)[C@@H](NC(=O)[C@H](Cc2cn(CCOCCOCCOCCNC(=O)CC[C@H](NC(=O)c3ccc(NCc4cnc5nc(N)[nH]c(=O)c5n4)cc3)C(=O)O)nn2)NC(=O)CCOCCOCCOCCOCCOCCOCCOCCOCCOCCOCCNC(=O)CCOCCOCCOCCOCCOCCOCCOCCOCCOCCOCCNC(=O)CCCC[C@@H]2SC[C@@H]3NC(=O)N[C@@H]32)Cc2cn(nn2)CCCC[C@@H](C(N)=O)NC1=O [Folate-deryt]
binding selectivity for FOLR1 (+) cells over FOLR1 (−) cells [5]: excellent selectivity | EC50 [6]: 280 pM

C[C@H](O)[C@H]1NC(=O)[C@@H](Cc2cnc[nH]2)NC(=O)[C@@H](CO)NC(=O)[C@@H](Cc2cnc[nH]2)NC(=O)[C@@H](NC(=O)CC[C@H](NC(=O)c2ccc(NCc3cnc4nc(N)[nH]c(=O)c4n3)cc2)C(=O)O)Cc2cn(nn2)CCCC[C@@H](C(=O)NCCOCCOCCOCC(=O)N[C@@H](CCCCNC(=O)CO/N=C/c2ccc([18F])cc2)C(N)=O)NC(=O)[C@@H](C)NC1=O
tissue uptake per volume at 4 h ([7]; accumulation in the tumor): ~4 %ID/mL | tissue uptake per volume at 4 h ([7]; radiotracer accumulation in the tumor): 3.5 to 5.5 %ID/mL

C[C@H](O)[C@H]1NC(=O)[C@@H](Cc2c[nH]cn2)NC(=O)[C@@H](CO)NC(=O)[C@@H](Cc2c[nH]cn2)NC(=O)[C@@H](NC(=O)[C@H](Cc2cn(CCOCCOCCOCCNC(=O)CC[C@H](NC(=O)c3ccc(NCc4cnc5nc(N)[nH]c(=O)c5n4)cc3)C(=O)O)nn2)NC(=O)CCOCCOCCOCCOCCOCCOCCOCCOCCOCCOCCNC(=O)CCOCCOCCOCCOCCOCCOCCOCCOCCOCCOCCNC(=O)CCCC[C@@H]2SC[C@@H]3NC(=O)N[C@@H]32)Cc2cn(nn2)CCCC[C@@H](C(N)=O)NC(=O)[C@@H](C)NC1=O [Tz heterobiligand]
binding selectivity for FOLR1 (+) cells over FOLR1 (−) cells [5]: high selectivity | EC50 [6]: 107 pM

C[C@H](O)[C@H]1NC(=O)[C@@H](Cc2c[nH]cn2)NC(=O)[C@@H](CO)NC(=O)[C@@H](Cc2c[nH]cn2)NC(=O)[C@@H](NC(=O)COCCOCCOCCNC(=O)CCCC[C@@H]2SC[C@@H]3NC(=O)N[C@@H]32)Cc2cn(nn2)CCCC[C@@H](C(N)=O)NC(=O)[C@@H](C)NC1=O [hshta] ({Biotin-AEEEA}-[Pra][dH][dS][dH][dT][dA][Lys(N3)]-NH2; triazole 1-7)
binding selectivity for FOLR1 (+) cells over FOLR1 (−) cells [5]: higher selectivity for FOLR1 than kyeet | affinity for recombinant human FOLR protein in ELISA ([6]; tested alone): low micromolar affinity

Folate-hshta-G-F-K(^177Lu-DOTA)-OH [^177Lu-#7327]
caliper-measured tumor volume ([1]; 29.6 MBq arm, following the second dose): stabilized and then fell | time to statistically significant differential between treated and untreated ([1]; 29.6 MBq arm, p≤0.05): 12 days post injection | loss of body weight ([1]; 29.6 MBq dose, two doses): 5-10% | body weights of treated mice ([1]; (+/−10%)): normal body weights | tumor response ([1]; two treatments at 29.6 MBq followed by a third treatment at 74 MBq): Tumor regression | body weight loss after second dose ([2]; 9.25 MBq and 14.8 MBq arms, second dose 21 days after first): minimal | tolerability of first dose ([2]; 9.25 MBq, 14.8 MBq, and 29.6 MBq arms): well tolerated | tumor sizes after additional treatment on day 24 ([2]; 46.3, 74 and 148 MBq groups): shrinking tumor sizes | tumor volumes ([2]; 46.3 MBq group, elevated dose): stable tumor volumes | decrease of tumor volumes, on average ([2]; 74 MBq and 148 MBq arms, single elevated dose at 45 days post injection): 50% | body weight ([2]; 74 MBq and 148 MBq, elevated dose): modest body weight loss | time to statistically significant differential between treated and control ([2]; 74 MBq arm): 24 days post-injection | body weight after second dose ([2]; highest dose (29.6 MBq)): modest loss of body weight that stabilized and then rebounded | tumor volume ([2]; two doses at 74 MBq, 21 days apart, vs 0 MBq control): decrease in tumor volume | tumor volume ([2]; two doses, arms of 9.25, 14.8, and 29.6 MBq): dose dependent decrease in tumor volume | tumor response ([2]; two treatments at 29.6 MBq): tumor stasis | tumor response ([2]; two treatments at 74 MBq): Tumor stasis | tolerability ([4]; doses of 111 MBq and 185 MBq): not tolerated | tolerability ([4]; doses of 111 MBq and 185 MBq, listed as Indi ^177Lu-7327): lost substantial body weight | tolerability ([4]; repeated doses of 14.8, 22.2, 29.6, and 37 MBq, 21 days apart): well tolerated | tolerated radioactive doses ([4]; three treatments, healthy non-tumor bearing female NSG mice): up to 111 MBq | outcompeting native folate for receptor binding [8]: approximately 500 fold

C[C@H](O)[C@H]1NC(=O)[C@@H](CCC(=O)O)NC(=O)[C@@H](CCC(=O)O)NC(=O)[C@@H](Cc2ccc(O)cc2)NC(=O)[C@@H](CCCCN)NC(=O)[C@@H](NC(=O)[C@H](Cc2cn(CCOCCOCCOCCNC(=O)CC[C@H](NC(=O)c3ccc(NCc4cnc5nc(N)[nH]c(=O)c5n4)cc3)C(=O)O)nn2)NC(=O)CCOCCOCCOCCOCCOCCOCCOCCOCCOCCOCCNC(=O)CCOCCOCCOCCOCCOCCOCCOCCOCCOCCOCCNC(=O)CCCC[C@@H]2SC[C@@H]3NC(=O)N[C@@H]32)Cc2cn(nn2)CCCC[C@@H](C(N)=O)NC1=O [folate-kyeet heterobiligand]
binding selectivity for FOLR1 (+) cells ([5]; 40 nM of the test article): Virtually complete selectivity | binding selectivity for FOLR1 (+) cells over FOLR1 (−) cells [5]: high selectivity | EC50 [6]: 149 pM

C[C@H](O)[C@H]1NC(=O)[C@@H](CCC(=O)O)NC(=O)[C@@H](CCC(=O)O)NC(=O)[C@@H](Cc2ccc(O)cc2)NC(=O)[C@@H](CCCCN)NC(=O)[C@@H](NC(=O)COCCOCCOCCNC(=O)CCCC[C@@H]2SC[C@@H]3NC(=O)N[C@@H]32)Cc2cn(nn2)CCCC[C@@H](C(N)=O)NC1=O [kyeet] ({Biotin-AEEEA}-[Pra][dK][dY][dE][dE][dT][Lys(N3)]-NH2; triazole 1-7)
binding selectivity for FOLR1 (+) cells over FOLR1 (−) cells [5]: slight binding selectivity
